Assay results as given in patent US20100056456A1.

Target: human N-type calcium channel (human) (UniProt Q00975)
Assay: cell-based or functional assay

Chain of human N-type calcium channel (human) (Q00975 whole entry): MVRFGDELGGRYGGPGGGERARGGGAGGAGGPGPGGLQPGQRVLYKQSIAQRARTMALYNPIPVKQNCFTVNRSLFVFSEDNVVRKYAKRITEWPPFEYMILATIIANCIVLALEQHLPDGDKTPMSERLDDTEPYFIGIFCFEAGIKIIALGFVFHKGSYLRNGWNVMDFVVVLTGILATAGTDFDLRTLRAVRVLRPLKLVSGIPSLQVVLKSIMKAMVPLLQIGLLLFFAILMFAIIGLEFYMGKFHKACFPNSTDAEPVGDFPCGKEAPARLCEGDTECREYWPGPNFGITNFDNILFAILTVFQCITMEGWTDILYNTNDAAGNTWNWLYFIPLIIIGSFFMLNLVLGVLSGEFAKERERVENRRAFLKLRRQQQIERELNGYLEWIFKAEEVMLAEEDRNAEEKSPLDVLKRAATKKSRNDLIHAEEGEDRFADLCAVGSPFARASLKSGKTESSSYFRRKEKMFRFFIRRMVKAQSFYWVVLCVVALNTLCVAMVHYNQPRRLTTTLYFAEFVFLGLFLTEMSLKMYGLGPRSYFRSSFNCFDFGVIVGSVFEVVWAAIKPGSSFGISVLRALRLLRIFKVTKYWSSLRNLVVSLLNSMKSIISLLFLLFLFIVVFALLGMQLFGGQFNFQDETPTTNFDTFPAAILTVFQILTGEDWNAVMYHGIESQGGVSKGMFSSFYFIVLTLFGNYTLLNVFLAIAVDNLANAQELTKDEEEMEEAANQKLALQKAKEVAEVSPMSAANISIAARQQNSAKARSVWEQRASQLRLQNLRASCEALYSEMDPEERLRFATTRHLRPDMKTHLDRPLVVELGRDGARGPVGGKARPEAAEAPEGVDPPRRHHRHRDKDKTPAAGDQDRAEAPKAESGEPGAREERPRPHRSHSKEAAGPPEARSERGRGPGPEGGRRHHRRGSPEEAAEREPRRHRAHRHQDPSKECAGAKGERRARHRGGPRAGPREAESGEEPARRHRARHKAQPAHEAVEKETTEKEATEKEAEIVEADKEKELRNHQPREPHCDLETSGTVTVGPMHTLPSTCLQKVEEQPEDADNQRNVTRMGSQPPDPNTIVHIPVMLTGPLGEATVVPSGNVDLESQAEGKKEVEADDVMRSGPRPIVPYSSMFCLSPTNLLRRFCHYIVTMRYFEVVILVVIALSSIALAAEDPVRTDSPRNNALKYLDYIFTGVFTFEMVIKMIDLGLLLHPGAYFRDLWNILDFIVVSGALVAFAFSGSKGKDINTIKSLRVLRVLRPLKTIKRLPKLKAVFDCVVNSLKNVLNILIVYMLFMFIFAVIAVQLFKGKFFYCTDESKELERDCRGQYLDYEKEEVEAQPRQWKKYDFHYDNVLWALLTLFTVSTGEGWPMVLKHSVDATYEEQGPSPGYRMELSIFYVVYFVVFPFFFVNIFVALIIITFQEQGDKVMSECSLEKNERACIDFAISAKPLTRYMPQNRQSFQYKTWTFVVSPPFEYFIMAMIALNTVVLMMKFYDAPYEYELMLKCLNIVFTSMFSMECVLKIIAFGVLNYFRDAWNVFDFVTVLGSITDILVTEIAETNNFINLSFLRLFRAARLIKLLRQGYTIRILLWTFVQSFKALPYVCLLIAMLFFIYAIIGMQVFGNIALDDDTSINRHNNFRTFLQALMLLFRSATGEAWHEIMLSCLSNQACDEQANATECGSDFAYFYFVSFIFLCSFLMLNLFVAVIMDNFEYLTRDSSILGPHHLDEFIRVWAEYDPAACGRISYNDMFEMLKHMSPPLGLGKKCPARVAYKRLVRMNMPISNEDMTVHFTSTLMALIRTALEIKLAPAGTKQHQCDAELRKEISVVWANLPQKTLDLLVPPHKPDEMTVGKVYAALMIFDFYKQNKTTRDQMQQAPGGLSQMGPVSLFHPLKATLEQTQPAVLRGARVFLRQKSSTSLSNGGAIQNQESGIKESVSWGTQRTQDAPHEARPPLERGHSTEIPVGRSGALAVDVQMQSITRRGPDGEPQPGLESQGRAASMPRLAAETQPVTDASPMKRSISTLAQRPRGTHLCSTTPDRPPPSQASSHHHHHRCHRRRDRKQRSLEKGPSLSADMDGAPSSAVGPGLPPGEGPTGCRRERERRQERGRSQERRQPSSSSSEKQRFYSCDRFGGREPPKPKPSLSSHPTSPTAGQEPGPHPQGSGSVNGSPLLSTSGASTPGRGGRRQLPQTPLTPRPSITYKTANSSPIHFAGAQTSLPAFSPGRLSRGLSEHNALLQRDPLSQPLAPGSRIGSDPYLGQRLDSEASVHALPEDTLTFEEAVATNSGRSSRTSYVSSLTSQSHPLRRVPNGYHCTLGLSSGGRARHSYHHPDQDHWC

| Substance | IC50 of dose-inhibition curve, whole-cell patch clamp of N-type Ca2+ current [nM] | recovery after washout (FIG. 5) [%] |
| --- | --- | --- |
| ω-conotoxin FVIA (peptide) | 11.5 | 75 |
| ω-conotoxin MVIIA (peptide) | 7.96 | 35 |
